Results reported in publication PMC7209288.

Experiments:
[1] = molecular target: human C5; assay: SPR; fit not_stated; antibody as IgG; antigen as monomer; on the surface: not_stated; avidity not_told; settings: pH 7.4; second pH 6.0
[2] = molecular target: Complement component C5 (human, wild type) (UniProt P01031); assay: SPR (Biacore); settings: for t1/2 ratio pH7.4/pH6.0: pH 6.0-7.4, not stated (pH 7.4 and pH 6.0 compared); for KD / T1/2 (half-life of the complex): pH 7.4, 25 °C, not stated for this experiment (the 37 °C screen used 150 mM NaCl), not stated explicitly for the 25 °C runs, pH 7.4 (the 37 °C screen used HBS-EP: 10 mM Hepes)
Sequence of UniProt P01031 (P01031 whole entry): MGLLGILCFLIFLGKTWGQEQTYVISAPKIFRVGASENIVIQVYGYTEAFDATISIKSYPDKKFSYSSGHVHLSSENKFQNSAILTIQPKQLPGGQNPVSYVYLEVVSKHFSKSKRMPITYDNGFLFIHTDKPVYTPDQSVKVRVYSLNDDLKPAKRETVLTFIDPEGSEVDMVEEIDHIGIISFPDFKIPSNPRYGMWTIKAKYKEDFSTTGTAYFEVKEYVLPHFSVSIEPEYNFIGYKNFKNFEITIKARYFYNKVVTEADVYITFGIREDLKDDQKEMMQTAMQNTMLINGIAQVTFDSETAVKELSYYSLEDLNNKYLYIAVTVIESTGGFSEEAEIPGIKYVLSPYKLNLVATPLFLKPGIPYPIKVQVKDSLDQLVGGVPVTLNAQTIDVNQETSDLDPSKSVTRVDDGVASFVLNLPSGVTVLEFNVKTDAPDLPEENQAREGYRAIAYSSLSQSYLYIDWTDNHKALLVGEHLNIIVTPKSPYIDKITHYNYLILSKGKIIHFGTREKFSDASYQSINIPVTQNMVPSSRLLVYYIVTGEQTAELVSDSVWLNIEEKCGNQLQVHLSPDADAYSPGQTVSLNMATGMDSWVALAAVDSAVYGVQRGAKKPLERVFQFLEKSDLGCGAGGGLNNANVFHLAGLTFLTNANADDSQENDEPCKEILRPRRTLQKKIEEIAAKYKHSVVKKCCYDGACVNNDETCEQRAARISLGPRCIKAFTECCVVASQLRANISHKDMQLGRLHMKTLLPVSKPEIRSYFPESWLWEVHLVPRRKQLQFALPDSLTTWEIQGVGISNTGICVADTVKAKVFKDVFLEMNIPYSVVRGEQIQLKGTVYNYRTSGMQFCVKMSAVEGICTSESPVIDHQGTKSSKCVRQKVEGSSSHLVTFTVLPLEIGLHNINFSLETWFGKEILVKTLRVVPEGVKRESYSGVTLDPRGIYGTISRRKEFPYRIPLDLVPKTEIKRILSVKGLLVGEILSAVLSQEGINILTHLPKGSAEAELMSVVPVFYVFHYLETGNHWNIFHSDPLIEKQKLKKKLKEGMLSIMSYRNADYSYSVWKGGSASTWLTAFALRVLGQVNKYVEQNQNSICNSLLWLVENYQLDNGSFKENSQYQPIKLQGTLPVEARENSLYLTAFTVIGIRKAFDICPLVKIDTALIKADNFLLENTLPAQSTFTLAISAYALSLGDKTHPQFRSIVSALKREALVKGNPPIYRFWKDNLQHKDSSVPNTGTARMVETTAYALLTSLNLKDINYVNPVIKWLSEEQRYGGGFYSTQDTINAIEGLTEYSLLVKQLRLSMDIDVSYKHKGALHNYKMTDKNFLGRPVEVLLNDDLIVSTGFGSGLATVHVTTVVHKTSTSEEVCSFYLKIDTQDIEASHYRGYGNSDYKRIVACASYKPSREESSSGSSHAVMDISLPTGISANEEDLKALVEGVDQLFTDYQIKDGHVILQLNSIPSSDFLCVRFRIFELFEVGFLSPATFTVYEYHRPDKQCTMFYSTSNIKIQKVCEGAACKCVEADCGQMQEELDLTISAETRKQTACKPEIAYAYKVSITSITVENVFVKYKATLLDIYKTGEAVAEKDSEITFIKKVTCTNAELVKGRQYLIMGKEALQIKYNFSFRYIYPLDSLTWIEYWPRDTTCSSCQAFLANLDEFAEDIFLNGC

[3] = molecular target: Complement component C5 (human, wild type) (UniProt P01031); assay: SPR (Biacore T200, CM4 chip); settings: pH 7.4, 37 °C, 150 mM NaCl, HBS-EP: 10 mM Hepes

Substance | t1/2 ratio of binding hC5 at pH7.4/pH6.0 [1] | t1/2 ratio pH7.4/pH6.0 [2] | KD [2] | T1/2 (half-life of the complex) [2] | KD [3] | T1/2 (half-life of the complex) [3]
In-house eculizumab | 5.2 | – | – | – | – | –
In-house eculizumab, anti-human C5 monoclonal antibody | – | t1/2 ratio of binding hC5 at pH7.4/pH6.0 = 5.2 | 0.301 nM | 1.72 h | – | –
REGN3918 | 3.8 | – | – | – | – | –
REGN3918 (pozelimab), anti-human C5 monoclonal antibody S228P (EU numbering, IgG4 hinge) | – | t1/2 ratio of binding hC5 at pH7.4/pH6.0 = 3.8 | 0.189 nM | 1.03 h | 0.262 nM | 0.833 h
